According to patent US11660961B2, “Host cells and methods for producing isopentenol from mevalonate” (The Regents of the University of California, priority 2015, dated 2023):

Tests used:
[1] = system: E. coli; details: intracellular accumulation in pathway II strains
[2] = In vitro hydrolysis of IP to isopentenol (purified enzyme or cell lysates); format: biochemical; details: purified NudB or lysates of cells overexpressing the phosphatase
Method: To identify IP-hydrolyzing endogenous phosphatases, single gene knockout mutants of 36 phosphatases, of which substrates are mostly mono-phosphorylated metabolites, are retrieved from the Keio collection (Baba et al., 2006). 1 mL overnight cultures from each mutant are concentrated in 0.5 mL of 50 mM Tris-HCl (pH 8.0) buffer containing 1 mM DTT and ˜50 mg of glass beads (<100 μm, Sigma-Aldrich, USA). Cells are lysed by bead-beating for 2 min at 6.0 M/s (MP biomedicals Fast Prep, USA). After centrifugation of cell lysates at 20,000 g for 10 min, clear supernatant is used for assay reaction containing 0.5 mM isopentenyl monophosphate (IP). An equal volume of ethyl acetate is added to 100 μL of assay reaction after incubating overnight at 30° C., and isopentenol is extracted for 10 min by vigorous mixing.
Coding sequences of agp, aphA, and yqaB are amplified from BW25113 genome by PCR, and they are subsequently cloned to pBbE1a vector (Lee et al., 2011) for over-expression. Expression of these three genes are induced by addition of 0.5 mM IPTG to the cell cultures, and cell lysates of each sample are prepared with three biological replicates as described above for screening of the 36 mutants. 600 μL of assay reactions containing cell lysates, 1 mM DTT are prepared and the reaction is initiated by addition of 0.5 mM IP. […] Quantification of metabolites

[3] = In vitro hydrolysis of IPP by purified Nudix hydrolase; format: biochemical; details: purified enzyme with IPP; up to 16 hours
Method: All metabolites are analyzed by liquid chromatography mass spectrometry (LC-MS; Agilent Technologies 1200 Series HPLC system and Agilent Technologies 6210 time-of-flight mass spectrometer) on a ZIC-HILIC column (150 mm length, 2.1-mm internal diameter, and 3.5-μm particle size). Standard chemicals (IPP and IP) are purchased from Sigma-Aldrich (USA). Metabolites are eluted isocratically with a mobile phase composition of 64% (v/v) acetonitrile containing 50 mM ammonium acetate with a flow rate of 0.15 mL/min. IPP and IP from E. coli extracts or enzyme assay are quantified via […] calibration curves ranging from 781.25 nM to 200 μM.

[4] = system: E. coli BW25113; test: Isopentenol production in E. coli; format: cell-based, Escherichia coli; details: expressed in IPP-bypass pathway II in E. coli
Method: E. coli BW25113 harboring two plasmids is used for isopentenol production. Seed cultures of all production strains are prepared by growing single colonies in LB medium containing 100 μg/mL ampicillin and 30 μg/mL chloramphenicol overnight at 37° C. with shaking at 200 rpm. The seed cultures are diluted in EZ-Rich defined medium (Teknova, USA) containing 10 g/L glucose (1%, w/v), 100 μg/mL ampicillin and 30 μg/mL chloramphenicol. The E. coli cell cultures are incubated in rotary shakers (200 rpm) at 37° C., and 0.5 mM IPTG is added to induce protein expression at OD600 of 0.6-0.8. To provide different levels of aeration, identical volumes of the cell culture are split into two flasks for incubation at 30° C. with shaking at either 200 rpm or 30 rpm.
For isopentenol quantification, 250 μL of cell culture is combined with 250 μL of ethyl acetate containing 1-butanol (30 mg/L) as an internal standard. This mixture of ethyl acetate and cell culture is vigorously shaken for 15 min and subsequently centrifuged at 13,000 g for 2 min to separate ethyl acetate from the aqueous phase. 100 μL of the ethyl acetate layer was diluted 5-fold, and 1 μL is analyzed by Agilent GCMS equipped with Cyclosil-B column (Agilent, USA) or Thermo GCFID equipped with DB-WAX column (Agilent, USA) for quantitation of isopentenol.

[5] = In vitro enzyme kinetics of decarboxylases, ADP formation coupled to NADH oxidation; format: biochemical; details: in vitro assay reactions using cell lysates

Row | Molecule | hydrolysis of IP to isopentenol [2] | product formation from MVAP [5] | also measured
1 | C[C@@](O)(CCOP(=O)(O)O)CC(=O)O [MVAP, MVA monophosphate] |  |  | toxicity of accumulated metabolite to cells [1]: without any significant toxicity
2 | NudB: phosphatase (Nudix hydrolase) from E. coli (protein, UniProt P0AFC0 1-150, looked up) Dihydroneopterin triphosphate …: MKDKVYKRPVSILVVIYAQDTKRVLMLQRRDDPDFWQSVTGSVEEGETAPQAAMREVKEEVTIDVVAEQLTLIDCQRTVEFEIFSHLRHRYAPGVTRNTESWFCLALPHERQIVFTEHLAYKWLDAPAAAALTKSWSNRQAIEQFVINAA | do not show the activity of hydrolyzing IP to Isopentenol |  | IPP hydrolysis product [3]: produces only IP
3 | aphA: E. coli-endogenous phosphatase found to hydrolyze IP to isopentenol (protein, UniProt P0AE22 26-237, looked up) Class B acid phosphatase: SSPSPLNPGTNVARLAEQAPIHWVSVAQIENSLAGRPPMAVGFDIDDTVLFSSPGFWRGKKTFSPESEDYLKNPVFWEKMNNGWDEFSIPKEVARQLIDMHVRRGDAIFFVTGRSPTKTETVSKTLADNFHIPATNMNPVIFAGDKPGQNTKSQWLQDKNIRIFYGDSDNDITAARDVGARGIRILRASNSTYKPLPQAGAFGEEVIVNSEY | significantly higher and faster hydrolysis activity on IP |  | effect on in vivo isopentenol production [4]: does not significantly increase the isopentenol production
4 | S155E: PMDsc mutant, serine 155 mutated to glutamate (protein, UniProt P32377 1-396, looked up, variant S155E) Diphosphomevalonate …: MTVYTASVTAPVNIATLKYWGKRDTKLNLPTNSSISVTLSQDDLRTLTSAATAPEFERDTLWLNGEPHSIDNERTQNCLRDLRQLRKEMESKDASLPTLSQWKLHIVSENNFPTAAGLASSAAGFAALVSAIAKLYQLPQSTSEISRIARKGSGEACRSLFGGYVAWEMGKAEDGHDSMAVQIADSSDWPQMKACVLVVSDIKKDVSSTQGMQLTVATSELFKERIEHVVPKRFEVMRKAIVEKDFATFAKETMMDSNSFHATCLDSFPPIFYMNDTSKRIISWCHTINQFYGETIVAYTFDAGPNAVLYYLAENESKLFAFIYKLFGSVPGWDKKFTTEQLEAFNHQFESSNFTARELDLELQKDVARVILTQVGSGPQETNESLIDAKTGLPKE |  | do not produce detectible amount of product | 
5 | S208E: PMDsc mutant, serine 208 mutated to glutamate (protein, UniProt P32377 1-396, looked up, variant S208E) Diphosphomevalonate …: MTVYTASVTAPVNIATLKYWGKRDTKLNLPTNSSISVTLSQDDLRTLTSAATAPEFERDTLWLNGEPHSIDNERTQNCLRDLRQLRKEMESKDASLPTLSQWKLHIVSENNFPTAAGLASSAAGFAALVSAIAKLYQLPQSTSEISRIARKGSGSACRSLFGGYVAWEMGKAEDGHDSMAVQIADSSDWPQMKACVLVVSDIKKDVSETQGMQLTVATSELFKERIEHVVPKRFEVMRKAIVEKDFATFAKETMMDSNSFHATCLDSFPPIFYMNDTSKRIISWCHTINQFYGETIVAYTFDAGPNAVLYYLAENESKLFAFIYKLFGSVPGWDKKFTTEQLEAFNHQFESSNFTARELDLELQKDVARVILTQVGSGPQETNESLIDAKTGLPKE |  | do not produce detectible amount of product | 
